Source: PMC4414177 (2015)

B1: TRAF2 CTD (protein)
chain: DQDKIEALSSKVQQLERSIGLKDLAMADLEQKVLEMEASTYDGVFIWKISDFARKRQEAVAGRIPAIFSPAFYTSRYGYKMCLRIYLNGDGTGRGTHLSLFFVVMKGPNDALLRWPFNQKVTLMLLDQNNREHVIDAFRPDVTSSSFQRPVNDMNIASGCPLFCPVSKMEAKNSYVRDDAIFIKAIVDLTGL
modifications: 1 mM GSH+8 μM MC3181
B2: TRAF2 CTD (protein)
chain: B1 chain
B3: TRAF2 CTD (protein)
chain: B1 chain
modifications: 1 mM GSH
B4: JNK1α2 (protein)
chain: MSRSKRDNNFYSVEIGDSTFTVLKRYQNLKPIGSGAQGIVCAAYDAILERNVAIKKLSRPFQNQTHAKRAYRELVLMKCVNHKNIIGLLNVFTPQKSLEEFQDVYIVMELMDANLCQVIQMELDHERMSYLLYQMLCGIKHLHSAGIIHRDLKPSNIVVKSDCTLKILDFGLARTAGTSFMMTPYVVTRYYRAPEVILGMGYKENVDLWSVGCIMGEMVCHKILFPGRDYIDQWNKVIEQLGTPCPEFMKKLQPTVRTYVENRPKYAGYSFEKLFPDVLFPADSEHNKLKASQARDLLSKMLVIDASKRISVDEALQHPYINVWYDPSEAEAPPPKIPDKQLDEREHTIEEWKELIYKEVMDLEERTKNGVIRGQPSPLGAAVINGSQHPSSSSSVNDVSSMSTDPTLASDTDSSLEAAAGPLGCCR
modifications: 1 mM GSH
B5: JNK1α2 (protein)
chain: B4 chain
B6: JNK1α2 (protein)
chain: B4 chain
modifications: 1 mM GSH+8 μM MC3181

The binders below were run against GSTP1-1 (Homo sapiens, UniProt P09211) (assay: ELISA).

Kd | Binder
> 10000 nM | B1
280 nM | B2
3000 nM | B3
2200 nM | B4
420 nM | B5
> 5000 nM | B6
